± gives the standard deviation of the averaged measurements.

The test system of the data set is Saccharomyces cerevisiae. Briefly: protein stability index of tFT-peptide fusion (C-terminal peptide) (PSI (0-1 scale)); higher = more stable (slower turnover). The conditions noted are these: temperature: 30 C. The protocol: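 MPS profiling in S. cerevisiae of the yeast C-terminome library: the last 12 aa of each annotated ORF are fused to the C-terminus of a sfGFP-mCherry timer, after a GGGS linker. Cells are FACS-sorted into 8 mCherry/sfGFP bins and deep-sequenced. PSI runs from 0 (unstable) to 1 (stable); wild type and das1Δ backgrounds, two technical replicates each.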

Where [1] appears, read: genetic background: das1 deletion.

SDVAKQLAALGY [RPL16A C-terminal 12 aa]: the protein stability index under setting [1] is 0.698 ± 0.024 and the protein stability index (genetic background: wild type) came out at 0.677 ± 0.012.
For SETIEELLKEVE [HYR1 C-terminal 12 aa] the same measures were 0.708 ± 0.0081 and 0.7 ± 0.015.
In the same order, the values of SFDVLAKVPNAA [RPA190 C-terminal 12 aa] are 0.692 ± 0.011 and 0.655 ± 0.011.
For SFNEVVKEVQAL [NHP2 C-terminal 12 aa] the same measures were 0.687 ± 0.017 and 0.692 ± 0.019.
As to SFRLTKRQTDND [POS5 C-terminal 12 aa], the protein stability index turned out to be 0.7021 ± 0.0053 under setting [1] and 0.709 ± 0.033 (genetic background: wild type).
In the same order, the values of SFSYLWRNFGFI [PDR18 C-terminal 12 aa] are 0.7475 ± 0.0067 and 0.716 ± 0.027.
For the sequence SGAGARGSSAAA [LYS2 C-terminal 12 aa], the protein stability index runs as follows: under setting [1], 0.702 ± 0.011; (genetic background: wild type) 0.676 ± 0.032.
In the same order, the values of SGPSAMTKFGPR [ARP2 C-terminal 12 aa] are 0.69 ± 0.032 and 0.6842 ± 0.0042.
With SIDQFRGKLNSI [URA1 C-terminal 12 aa], the protein stability index by setting is: under setting [1], 0.701 ± 0.015; (genetic background: wild type) 0.688 ± 0.013.
Take SIFIASLLLAIV [FLO10 C-terminal 12 aa]: the protein stability index by setting is: under setting [1], 0.226 ± 0.0053; (genetic background: wild type) 0.237 ± 0.0032.
For SILRIDDIAFSR [CCT4 C-terminal 12 aa] the same measures were 0.739 ± 0.033 and 0.71 ± 0.034.
As to SIYILNVIRNAQ [YGR117C C-terminal 12 aa], the protein stability index under setting [1] is 0.6687 ± 0.0012 and the protein stability index (genetic background: wild type) is 0.538 ± 0.0088.
In the same order, the values of SKEKARALGSNF [GTT1 C-terminal 12 aa] are 0.712 ± 0.016 and 0.686 ± 0.013.
For the sequence SKGSPINTQYVF [AGA2 C-terminal 12 aa], the protein stability index reads like this: under setting [1], 0.731 ± 0.02; (genetic background: wild type) 0.732 ± 0.056.
In the same order, the values of SKKTTISAKKQQ [SGE1 C-terminal 12 aa] are 0.713 ± 0.014 and 0.51092 ± 0.00037.
For the sequence SKQEKPLSRPKD [GPI15 C-terminal 12 aa], the protein stability index under setting [1] stood at 0.718 ± 0.013 and the protein stability index (genetic background: wild type) is 0.684 ± 0.022.
As for SKSFPTAGEMRA [PET8 C-terminal 12 aa], the protein stability index is 0.711 ± 0.035 under setting [1] and 0.7283 ± 0.0038 (genetic background: wild type).
For SKTSHNPNEQSV [PDR11 C-terminal 12 aa] the same measures were 0.6953 ± 0.0037 and 0.687 ± 0.025.
In the same order, the values of SKYNCNIPACCV [YLR122C C-terminal 12 aa] are 0.654 ± 0.017 and 0.6636 ± 0.0051.
For SLDGDTYFIIRS [YDL158C C-terminal 12 aa] the same measures were 0.713 ± 0.024 and 0.688 ± 0.033.
For the sequence SLRIEAIKKGFV [SPS1 C-terminal 12 aa], the protein stability index was 0.727 ± 0.048 under setting [1] and 0.675 ± 0.029 (genetic background: wild type).
For SMDEEFKNMDCI [SIR3 C-terminal 12 aa] the same measures were 0.706 ± 0.0084 and 0.701 ± 0.05.
For SNKKLKSQWLIK [EMC1 C-terminal 12 aa] the same measures were 0.722 ± 0.017 and 0.665 ± 0.0081.
SNNPKLHHAKEA [MEP3 C-terminal 12 aa] gave a protein stability index under setting [1] of 0.696 ± 0.041 and a protein stability index (genetic background: wild type) of 0.375 ± 0.013.
In the same order, the values of SQAGLMSNEEVL [CCC2 C-terminal 12 aa] are 0.69664 ± 0.00011 and 0.699 ± 0.022.
For SQRPAKGVPEGF [VPS72 C-terminal 12 aa] the same measures were 0.69 ± 0.024 and 0.733 ± 0.051.
As to SRFDYLTRKNAL [CBK1 C-terminal 12 aa], the protein stability index turned out to be 0.6716 ± 0.0016 under setting [1] and 0.71 ± 0.051 (genetic background: wild type).
As to SRFEVACEQKAA [BSC2 C-terminal 12 aa], the protein stability index is, setting by setting: under setting [1], 0.579 ± 0.019; (genetic background: wild type) 0.592 ± 0.019.
In the same order, the values of “SRFRTNRLKGDQ [YNL042W-B C-terminal 12 aa]” are 0.699 ± 0.027 and 0.689 ± 0.026.
As to SRLKKEFEAAAL [IDP2 C-terminal 12 aa], the protein stability index runs as follows: under setting [1], 0.6762 ± 0.0031; (genetic background: wild type) 0.678 ± 0.085.
Take SSGADNSASSNQ [PAM16 C-terminal 12 aa]: the protein stability index is 0.684 ± 0.014 under setting [1] and 0.667 ± 0.029 (genetic background: wild type).
As to “SSSLSPSLSSWP [YJL020W-A C-terminal 12 aa]”, the protein stability index runs as follows: under setting [1], 0.739 ± 0.051; (genetic background: wild type) 0.778 ± 0.17.
Consider SSTGTPEHDQDT [EUC1 C-terminal 12 aa], for which the protein stability index by setting is: under setting [1], 0.69 ± 0.0083; (genetic background: wild type) 0.682 ± 0.025.
As to STATGKLKKRKM [RAD2 C-terminal 12 aa], the protein stability index by setting is: under setting [1], 0.718 ± 0.023; (genetic background: wild type) 0.649 ± 0.021.
Consider STFSIVSSISLW [YPL044C C-terminal 12 aa], for which the protein stability index is 0.6894 ± 0.0026 under setting [1] and 0.665 ± 0.057 (genetic background: wild type).
As to STPIAIGIMNIL [YDR271C C-terminal 12 aa], the protein stability index is 0.674 ± 0.018 under setting [1] and 0.697 ± 0.0089 (genetic background: wild type).
In the same order, the values of STSSLKRQRTDF [REX2 C-terminal 12 aa] are 0.718 ± 0.011 and 0.712 ± 0.017.
In turn, “STTADSTTNSAN [YLR146W-A C-terminal 12 aa]” showed a protein stability index under setting [1] of 0.696 ± 0.014 and a protein stability index (genetic background: wild type) of 0.664 ± 0.011.
In the case of SVFLLNITYLLD [YOR314W C-terminal 12 aa], the protein stability index was 0.236 ± 0.0099 under setting [1] and 0.268 ± 0.018 (genetic background: wild type).
In the same order, the values of SVTFFIQDILCL [YPL073C C-terminal 12 aa] are 0.389 ± 0.019 and 0.407 ± 0.015.
Regarding SWINLDFNDGDE [MDM12 C-terminal 12 aa], the protein stability index is, setting by setting: under setting [1], 0.6957 ± 0.004; (genetic background: wild type) 0.67488 ± 0.00028.
Consider SYRVMQPNEFES [YGL214W C-terminal 12 aa], for which the protein stability index reads like this: under setting [1], 0.7 ± 0.016; (genetic background: wild type) 0.711 ± 0.11.
For TAAQILKKQNRL [YDR541C C-terminal 12 aa] the same measures were 0.6454 ± 0.0021 and 0.704 ± 0.063.
For TALLENDANLIS [ERV15 C-terminal 12 aa] the same measures were 0.703 ± 0.019 and 0.703 ± 0.021.
In the same order, the values of TALNSGRSRDVK [YJL027C C-terminal 12 aa] are 0.6821 ± 0.0027 and 0.678 ± 0.019.
Regarding TCLTGEVIFPPR [NPC2 C-terminal 12 aa], the protein stability index is, setting by setting: under setting [1], 0.7115 ± 0.0058; (genetic background: wild type) 0.72 ± 0.017.
In the case of TDGLNVWKTISV [RRB1 C-terminal 12 aa], the protein stability index runs as follows: under setting [1], 0.661 ± 0.023; (genetic background: wild type) 0.6468 ± 0.0058.
For TEDKNKALESAQ [VPS60 C-terminal 12 aa] the same measures were 0.702 ± 0.013 and 0.6706 ± 0.0056.
For TEDQFKENGVKK [ICL1 C-terminal 12 aa] the same measures were 0.703 ± 0.033 and 0.716 ± 0.065.
In the same order, the values of TEEMKDAEEMKQ [RIX7 C-terminal 12 aa] are 0.685 ± 0.014 and 0.661 ± 0.017.
On to TEFMNFWINVLP [RSC4 C-terminal 12 aa], for which the protein stability index runs as follows: under setting [1], 0.725 ± 0.028; (genetic background: wild type) 0.715 ± 0.02.
Regarding TFEELWNGVEGI [ARH1 C-terminal 12 aa], the protein stability index reads like this: under setting [1], 0.722 ± 0.016; (genetic background: wild type) 0.682 ± 0.038.
TFGKCILDGFKA [SCM4 C-terminal 12 aa]: the protein stability index by setting is: under setting [1], 0.709 ± 0.017; (genetic background: wild type) 0.687 ± 0.05.
For TGQVGVPTISQV [NCE102 C-terminal 12 aa] the same measures were 0.687 ± 0.021 and 0.6819 ± 0.0068.
In the same order, the values of THENIHQKFVQF [SFB3 C-terminal 12 aa] are 0.7294 ± 0.004 and 0.6358 ± 0.0022.
Take THTHHNPNPTLF [YNL338W C-terminal 12 aa]: the protein stability index reads like this: under setting [1], 0.707 ± 0.011; (genetic background: wild type) 0.716 ± 0.075.
TILFMLVLYTIV [YDL241W C-terminal 12 aa] had a protein stability index under setting [1] of 0.222 ± 0.017 and a protein stability index (genetic background: wild type) of 0.222 ± 0.023.
TKVIQVQKKCIQ [IRC14 C-terminal 12 aa] came in with a protein stability index under setting [1] of 0.688 ± 0.026 and a protein stability index (genetic background: wild type) of 0.672 ± 0.032.
In the same order, the values of TKVYFLGRDSSV [NDE2 C-terminal 12 aa] are 0.688 ± 0.013 and 0.6764 ± 0.0011.
In the same order, the values of TLIDYFIENDGL [LYS5 C-terminal 12 aa] are 0.7227 ± 0.0034 and 0.761 ± 0.092.
Turning to TLRGLSNAFPTD [MME1 C-terminal 12 aa], the protein stability index by setting is: under setting [1], 0.7057 ± 0.0043; (genetic background: wild type) 0.703 ± 0.013.
Sequence TPKYVESDEDDQ [TOF2 C-terminal 12 aa] registered a protein stability index under setting [1] of 0.654 ± 0.041 and a protein stability index (genetic background: wild type) of 0.7196 ± 0.0037.
For TQSPADFSSQNH [NHX1 C-terminal 12 aa] the same measures were 0.74 ± 0.021 and 0.701 ± 0.021.
Take “TRGEATLRANYQ [YOR008W-B C-terminal 12 aa]”: the protein stability index came to 0.6862 ± 0.003 under setting [1] and 0.73 ± 0.055 (genetic background: wild type).
In the same order, the values of TRGPRRKLPTRV [BSP1 C-terminal 12 aa] are 0.6863 ± 0.0066 and 0.672 ± 0.06.
For the sequence TSIEEDLASKSE [RTA1 C-terminal 12 aa], the protein stability index was 0.689 ± 0.02 under setting [1] and 0.676 ± 0.008 (genetic background: wild type).
With TSSQYEGVALGM [EAF3 C-terminal 12 aa], the protein stability index reads like this: under setting [1], 0.695 ± 0.013; (genetic background: wild type) 0.669 ± 0.0083.

(Values after the supplement of paper PMC10724198.)
